assay: yeast display, Sf9 membrane polyspecificity reagent, FACS + sequencing; frameworks hold sequencing errors
Procedure, shortened: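 A nanobody's polyreactivity label depends on the gate it was sorted from. Yeast display cells were stained with 10% biotinylated, detergent-solubilized Sf9 membrane reagent for 1 hour at 4 °C, enriched on streptavidin microbeads and sorted by FACS. The low and high (top ~1%) gates were set on anti-HA fluorescence for expression and streptavidin fluorescence for reagent binding.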

Sequence | polyreactivity (PSR sort gate)
QVQLVESGGGLVQAGGSLRLSCAASGITFSKNAMGWYRKEPGKEKELVAAISRGGSTYYADSEKGRFTISRDNAKNTVYLQMNSLKPEDTAVYYCAARSRYYYRRPQISYDYWGQGTQVTVSS | low polyreactivity
QVQLVESGGGLVQAGGSLRLSCAASGSIFTPYTMGWYRQAPGKERELVAAITGSAGSTYYADSVKGRFTISRDNAKNTVYLQMNSLKPEDTAVYYCAAAVWGVYQWYYYWGQGTQVTVSS | high polyreactivity
QVQLVESGGGLVQAGGSLRLSCAASGSISSFYAMGWYRQAPGKERELVAGITSGGSTNYADSVNGRFTISRDNAKNTVYLKLNSLNPEDTAVFYCAAERTPSYRAYDYWGKGTQVTVSS | low polyreactivity
QVQLVESGGGLVQAGGSLRLSCAASGSTFPPYAMGRYRQAPGKERELVAAIDWSDGTTYYADSVKGRFTISRDYAKNTVYLQMNSLKPEDTAVYYCAGSLSQSEYDYWGQGTQVTVSS | low polyreactivity
QVQLVESGGGIVQAGCSLRLSSAASGFTFYGYAMGWYRQAPGKERELVAAMSWDGSSTYYADSVKGRFTISRDNAKNTVYLPMNSLKPEDTAVYYCAREYYYGYYYPIQSDYWGQGTQVTVSS | low polyreactivity
QDQLVESGGGLVQAGGSLRLSCAASGFTFRYYAMGWYRQAPGKEREFVAAITQSGGSTYYADSVKGRFTISRDNAKNTVYLQMNSLKPEDTAVYYCNTARVKYRWYNYWGQGTQVTVSS | high polyreactivity
QVQIVESGGGLVQAGASLSLSCAASGSIFGTNAMGWYRQAPGKERELVAAISSAGASTYYADSVKGRFTISRDNAKNTVYLQMNSLKPEDTAVYYCARGYTYQSSSFYYWGQGTQVTVSS | low polyreactivity
QVQLVESGGGLVQAGGSLRLSCAASGSIFAVYAMGWYRQAPGKERELVAVITRSGGSTYYADSVKGRFTISRDNAKNTVYLQMNSLKPEDTEVYYCAARSGYGYTRYEYWGQGTQVTVSS | high polyreactivity
QVQLVESGGGLVQAGGSLRLSCAASGSTFKSYTMGWYRQAPGKERELVAAISGSGGRTYYADSVKGRFTISRDNAKNTVYLQMNSLKPEDTAVYYCAATGPYGFYWGQGTQVTVSS | high polyreactivity
QVQLVESGGGLVQAGGSLRLSCAASGRTFGPYVMGWYSQAPGKDRELVAVIRWSGVSTYYADSVKGRFTISRDKAKNTVYLLRNSMTPEDTAVDYCNAVRPYRLASYDYWGQGTQVTVSS | high polyreactivity
QVQLVESGGGLVPAGGSLRLSCAASGSIFLAYAMGWYRQAPGKERELVAAITSIDGITSYADSVKGRFTISRDNAKNTVYLQMNSLTPEDTAVSYCAAPDGHWIRQWDTFEYWGQGTQVTVSS | low polyreactivity
QVQLVESGGGLVQAGGSLRLSCAASGSTFHLYAMGWYRQAPGKERELVASITWSGGRTYYADSVKGRFTISRDYAKNTVYLHMNSLKPEDTAVYYCAAGDVNWSYSLLYTVVLYDSWGQGTQVTVSS | high polyreactivity
QVQLEESGGGLVQAGGSLRLSCAATGSLFYTYSMGWYRQAPGKERELGASIRSDGITNYADSVKGRFTISRDNAKNTVYLQMNSLKPEDTAVYYCAARIIWSTNYYYWSGYNSWGQGTQVTVSS | high polyreactivity
QVQLVESGGGLVQAGGSLRLSCAASGSTFVSYAMGWYRQAPGKERELVAAIRTTSGSTYYADSVKGRFTISRDNAKNTVYLQMNSLKPEDTAVYYCAAAGRGPSFRRYDYWGQGTQVTVSS | high polyreactivity
QVQLVESGGGLVQAGGSLRLSCAASGRIFYFYAMGLYTQAPGKERELVAVISYGGDRTSYADSVKGRFTISRDNAKNTVYLQMNSLKPEDSAVYYCAARPFYRGYYYWGQGTQVTVSS | high polyreactivity
QVQLVESGGGLVQAGGSLRLSCAASGRIFGVNAMGWYRQAPGKERELVAAINYSGGRTSYADSVKGRFTISRDNEKNTVYLQMKSLKPEDTAVYYCAKYGLRGGYLYYYWGQGTQVTVSS | high polyreactivity
QVQLVESGGGLVQAGGSLRLSCAASGSIFSGNAMGWYRQAPGKERELVADITFSGSSTYADSVKGRFTISRDNAKNTVYLQMNSLKPEDTAVYYCAKKRPGFLRYGSIGEFQYDYWGQGTQVTVSS | low polyreactivity
QVQLVESVVVLVQAGGSLRLSCAASGFTIPFYAMGWYRQARGKERDLVAAISQSGVRTYYADSVKGRFTISRDNAKYTVYLQMKSLKPEDTAVYFCNVAYRGALDIHSYWYPSEYWGQGTQVTVSS | high polyreactivity
QVQLVESGGRLVQAGGSLRLSCAASGRIYTPYAMGWYRQAPGTERELVAAISTIGGTTYADSVKGRFTISRDNAKNTVYLQMNSLKPEDTAVYYCNTRRTGRRSTTPGDYWGQGTQVTVSS | high polyreactivity
QVQLVESGGGLVQAGGSLRLSCAASGSIFYTYVMGWYRQAPGKVREFVAAISKSGGSTYYADSVKGRFTISRDNAKNPVYLQMNSLIPEVTAVYYCAAYPIVSIQRRARGNSWGQGTQVTVSS | high polyreactivity
QVQLVESGGGLVQAGGSLRLSCAASGRIFPDNTMGWYRQAPGKERELVAVITYSGGSTYYADSVKGRFTISRDNAKNTVYLQMNSLKPEDTAVYYCARDDATAGDYWGQGTQVTVSS | low polyreactivity

From the nanobody polyreactivity screen of Harvey et al. (2022)
